{
  "source": "patent US20060246470A1",
  "about": "(published 2006)",
  "key": {"[1]": {"molecular_target": "T1, in vitro translated, 35S-incorporated ER (UniProt P03372 1-595, 35S-incorporated (in vitro translated))", "T1 construct": "also called ERα", "T1 sequence (looked up)": "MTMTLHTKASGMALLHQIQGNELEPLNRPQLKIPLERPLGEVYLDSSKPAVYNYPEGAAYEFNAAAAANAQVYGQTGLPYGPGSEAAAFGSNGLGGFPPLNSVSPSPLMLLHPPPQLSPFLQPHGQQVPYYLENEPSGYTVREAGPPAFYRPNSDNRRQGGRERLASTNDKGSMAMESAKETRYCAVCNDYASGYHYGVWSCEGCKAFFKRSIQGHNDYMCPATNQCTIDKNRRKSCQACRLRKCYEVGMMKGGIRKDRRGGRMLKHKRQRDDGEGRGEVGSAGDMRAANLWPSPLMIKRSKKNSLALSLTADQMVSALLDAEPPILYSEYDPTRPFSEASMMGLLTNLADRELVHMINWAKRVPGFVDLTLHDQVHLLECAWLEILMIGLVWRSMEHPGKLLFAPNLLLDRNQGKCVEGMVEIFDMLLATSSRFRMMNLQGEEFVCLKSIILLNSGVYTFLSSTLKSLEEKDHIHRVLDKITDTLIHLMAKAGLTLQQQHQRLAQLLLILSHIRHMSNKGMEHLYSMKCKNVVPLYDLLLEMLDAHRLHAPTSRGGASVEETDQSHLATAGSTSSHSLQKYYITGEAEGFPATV", "assay": "GST pull-down with or without E2 or Tamoxifen (FIG. 29)"}, "[2]": {"molecular_target": "T2, HER2, endogenous in MCF-7 cells (human, UniProt P04626 23-1255)", "T2 construct": "also called HER-2/neu", "assay": "immunoprecipitation and immunoblot, MCF-7 cells", "protocol": "In Panel B, immunoprecipitation of E or T treated MCF-7 cells was performed followed by immunoblot analysis."}, "GST-ER, P03372": {"molecular_target": "T3, GST-ER, P03372", "T3 chain": "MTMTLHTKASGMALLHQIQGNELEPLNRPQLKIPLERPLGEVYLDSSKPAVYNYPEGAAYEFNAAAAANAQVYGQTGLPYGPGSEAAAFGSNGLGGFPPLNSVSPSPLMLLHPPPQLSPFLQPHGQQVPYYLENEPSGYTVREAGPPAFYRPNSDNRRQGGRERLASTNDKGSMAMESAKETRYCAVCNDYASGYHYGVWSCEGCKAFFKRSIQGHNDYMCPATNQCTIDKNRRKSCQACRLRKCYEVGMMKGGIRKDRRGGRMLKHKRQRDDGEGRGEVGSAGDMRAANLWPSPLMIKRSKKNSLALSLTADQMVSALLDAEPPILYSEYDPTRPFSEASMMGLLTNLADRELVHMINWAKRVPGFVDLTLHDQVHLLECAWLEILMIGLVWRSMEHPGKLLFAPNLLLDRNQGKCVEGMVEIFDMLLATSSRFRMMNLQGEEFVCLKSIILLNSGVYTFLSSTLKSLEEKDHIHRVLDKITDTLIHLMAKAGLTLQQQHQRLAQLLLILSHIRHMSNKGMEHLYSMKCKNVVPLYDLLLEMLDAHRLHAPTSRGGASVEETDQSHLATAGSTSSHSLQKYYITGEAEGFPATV"}, "[3]": {"molecular_target": "T4, GST-RhoGDI (aa:1-81), P52565", "T4 chain": "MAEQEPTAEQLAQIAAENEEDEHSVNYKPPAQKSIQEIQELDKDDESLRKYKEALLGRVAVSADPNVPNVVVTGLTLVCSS"}, "GST-RhoGDI, P52565": {"molecular_target": "T5, GST-RhoGDI, P52565", "T5 chain": "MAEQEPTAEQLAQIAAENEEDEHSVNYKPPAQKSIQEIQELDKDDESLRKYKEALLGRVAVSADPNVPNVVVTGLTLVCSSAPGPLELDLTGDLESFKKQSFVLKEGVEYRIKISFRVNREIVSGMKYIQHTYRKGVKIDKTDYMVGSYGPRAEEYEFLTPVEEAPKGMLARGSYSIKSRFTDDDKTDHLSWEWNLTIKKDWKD"}},
  "data": [
    {"binder": "in vitro translated RhoGDI (other, UniProt P52565 1-204, looked up) MAEQEPTAEQLAQIAAENEEDEHSVNYKPPAQKSIQEIQELDKDDESLRKYKEALLGRVAVSADPNVPNVVVTGLTLVCSSAPGPLELDLTGDLESFKKQSFVLKEGVEYRIKISFRVNREIVSGMKYIQHTYRKGVKIDKTDYMVGSYGPRAEEYEFLTPVEEAPKGMLARGSYSIKSRFTDDDKTDHLSWEWNLTIKKDWKD", "values": [
      {"measurement": "binding result", "setting": "[1]", "value": "no binding"}
    ]},
    {"binder": "EBP50 (ezrin binding protein 50), endogenous in MCF-7 cells (other, human, UniProt O14745 2-358, looked up, also called NHE-RF; SLC9A3R1) SADAAAGAPLPRLCCLEKGPNGYGFHLHGEKGKLGQYIRLVEPGSPAEKAGLLAGDRLVEVNGENVEKETHQQVVSRIRAALNAVRLLVVDPETDEQLQKLGVQVREELLRAQEAPGQAEPPAAAEVQGAGNENEPREADKSHPEQRELRPRLCTMKKGPSGYGFNLHSDKSKPGQFIRSVDPDSPAEASGLRAQDRIVEVNGVCMEGKQHGDVVSAIRAGGDETKLLVVDRETDEFFKKCRVIPSQEHLNGPLPVPFTNGEIQKENSREALAEAALESPRPALVRSASSDTSEELNSQDSPPKQDSTAPSSTSSSDPILDFNISLAMAKERAHQKRSSKRAPQMDWSKKNELFSNL", "values": [
      {"measurement": "binding result", "setting": "[2]", "value": "binds"}
    ]},
    {"binder": "GST-p300 HAT (protein) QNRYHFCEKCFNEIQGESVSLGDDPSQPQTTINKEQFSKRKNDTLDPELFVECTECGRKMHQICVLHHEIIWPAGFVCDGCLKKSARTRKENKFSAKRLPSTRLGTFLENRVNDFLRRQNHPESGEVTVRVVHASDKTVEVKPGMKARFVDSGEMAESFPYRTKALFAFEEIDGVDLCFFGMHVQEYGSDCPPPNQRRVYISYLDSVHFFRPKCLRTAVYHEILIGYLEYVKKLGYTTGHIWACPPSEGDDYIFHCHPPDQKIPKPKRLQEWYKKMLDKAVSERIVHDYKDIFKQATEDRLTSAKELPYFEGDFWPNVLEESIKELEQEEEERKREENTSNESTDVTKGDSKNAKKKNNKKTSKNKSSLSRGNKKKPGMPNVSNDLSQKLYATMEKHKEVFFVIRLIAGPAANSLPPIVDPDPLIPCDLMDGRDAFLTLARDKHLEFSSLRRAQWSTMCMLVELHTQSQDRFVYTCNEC", "values": [
      {"measurement": "competitive in vitro acetylation assay", "setting": "GST-ER, P03372", "value": "Purified GST-ER was acetylated by GST-p300HAT in the presence of increasing amount of GST-RhoGDI."},
      {"measurement": "in vitro acetylation assay (14C-acetyl-CoA, SDS-PAGE, autoradiography)", "setting": "[3]", "value": "The result indicates that N-terminal of RhoGDI contains acetylation site(s)."},
      {"measurement": "in vitro acetylation assay (14C-acetyl-CoA, SDS-PAGE, autoradiography)", "setting": "GST-RhoGDI, P52565", "value": "RhoGDI, like ERα, is acetylated by p300."}
    ]}
  ]
}
